These results are taken from paper PMC8348223, “Direct Measurement of the Affinity between tBid and Bax in a Mitochondria-Like Membrane” (International Journal of Molecular Sciences, 2021).

This data set concerns the molecule itself. As to the kind of experiment: single particle fluorescence intensity (stoichiometry) analysis of confocal images; same bilayer and images as a1; event intensity normalised by the monomer brightness measured by FCS and binned into putative monomers, dimers, etc.

B1: Bax 47C labelled with HyLite488 (Bax-HyLite488) (natural protein, human, UniProt Q07812 1-192, looked up)
chain: MDGSGEQPRGGGPTSSEQIMKTGALLLQGFIQDRAGRMGGEAPELACDPVPQDASTKKLSEALKRIGDELDSNMELQRMIAAVDTDSPREVFFRVAADMFSDGNFNWGRVVALFYFASKLVLKALATKVPELIRTIMGWTLDFLRERLLGWIQDQGGWDGLLSYFGTPTWQTVTIFVAGVLTASLTIWKKMG
modifications: HyLite488 bound by maleimide chemistry to the cysteine at position 47
notes: full-length human Bax; the two endogenous cysteines (62 and 126) are replaced with alanine, and leucine 47 is changed to cysteine; Labelling efficiency 81%; also called Bax-HiLyte488
For B1, the binding result is given as “binds”.
